Measured values reported in PMC6895045, “Upregulation of tropomyosin alpha-4 chain in patients’ saliva with oral squamous cell carcinoma as demonstrated by Phage display” (Scientific Reports, 2019).

Target: T1, tropomyosin alpha-4 chain (Homo sapiens, UniProt P67936)
T1 construct: Tropomyosin alpha-4 chain, human, UniProtKB P67936; theoretical mass/pI printed as 28,522 kDa/4.67); Denatured protein on a nitrocellulose membrane; identity rests on MALDI-TOF MS of the excised spot; also called TPM4; TMP4; source: endogenous, pooled protein extracts from OSCC tissues, resolved by 2D gel electrophoresis
Assay: far-Western, overlay or dot blot; Western blot of a 2D gel (pH 4-7) of OSCC tissue protein extracts on nitrocellulose, probed with scFv-D09, detected with HRP-conjugated rat anti-HA; the spot was excised from the stained gel and identified by MALDI-TOF MS
Conditions: one partner purified

T1 sequence (P67936 whole entry): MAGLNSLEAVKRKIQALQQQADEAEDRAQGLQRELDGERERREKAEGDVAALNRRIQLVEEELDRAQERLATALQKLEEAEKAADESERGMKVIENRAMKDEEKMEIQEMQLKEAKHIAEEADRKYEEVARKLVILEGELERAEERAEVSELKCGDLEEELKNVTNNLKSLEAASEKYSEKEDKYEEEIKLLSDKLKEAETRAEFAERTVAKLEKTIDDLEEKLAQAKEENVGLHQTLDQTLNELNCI

B1: scFv-D09 (scFv, V domains shown)
VH: QVQLQESGPGLVKPSQTLSLTCAVSGGSISSSNWWSWVRQPPGKGLEWIGEIYHSGSTNYNPSLKSRVTISVDKSKNQFSLKLSSVTAADTAVYYCARQSFPGRAFDIWGQGTMVTVSS
VL: EIVMTQSPATLSVSPGERATLSCRASQSVSSNLAWYQQKPGQAPRLLIYGASTRATGIPARFSGSGSGTEFTLTISSLQSEDFAVYYCQHYNNWLWTFGQGTKVEIK
notes: also called scFv D09 antibody; scFv-D09 clone
B1: binds.
